Results: patent US20210122826A1

Tests used:
Human Clec5A (human) = Human Clec5A (human) (UniProt Q9NY25); experiment: flow, Jurkat, 100 nM Ab
human CD161 (human) [1] = target: human CD161 (human) (UniProt Q12918); experiment: flow, Jurkat, 100 nM Ab
Human OLR1 (human) = Human OLR1 (human) (UniProt P78380); experiment: flow, Jurkat, 100 nM Ab
Human CD209 (human) = Human CD209 (human) (UniProt Q9NNX6); experiment: flow, Jurkat, 100 nM Ab
Human Clec12B (human) = Human Clec12B (human) (UniProt Q2HXU8); experiment: flow, Jurkat, 100 nM Ab
Sequence of Human Clec12B (human) (Q2HXU8 whole entry): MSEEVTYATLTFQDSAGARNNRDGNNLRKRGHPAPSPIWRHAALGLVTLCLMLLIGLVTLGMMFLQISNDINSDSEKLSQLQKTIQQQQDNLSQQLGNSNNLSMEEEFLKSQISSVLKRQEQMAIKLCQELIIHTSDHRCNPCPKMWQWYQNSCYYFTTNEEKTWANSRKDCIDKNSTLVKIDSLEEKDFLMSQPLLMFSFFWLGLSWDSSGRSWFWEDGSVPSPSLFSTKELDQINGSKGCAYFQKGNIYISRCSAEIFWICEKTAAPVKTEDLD

[2] = target: cynomolgus CD161 (cynomolgus); experiment: flow, Jurkat, 100 nM Ab
Sequence of cynomolgus CD161 (cynomolgus) (chain, as listed by the source limits assumed): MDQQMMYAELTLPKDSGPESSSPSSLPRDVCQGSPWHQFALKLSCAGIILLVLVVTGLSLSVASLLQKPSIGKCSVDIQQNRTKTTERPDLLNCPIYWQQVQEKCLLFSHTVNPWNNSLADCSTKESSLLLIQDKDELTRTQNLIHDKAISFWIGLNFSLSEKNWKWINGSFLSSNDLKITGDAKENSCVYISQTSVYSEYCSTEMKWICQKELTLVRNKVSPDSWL

Human KLRF1 (human) = Human KLRF1 (human) (UniProt Q9NZS2); experiment: flow, Jurkat, 100 nM Ab
Sequence of Human KLRF1 (human) (Q9NZS2 whole entry): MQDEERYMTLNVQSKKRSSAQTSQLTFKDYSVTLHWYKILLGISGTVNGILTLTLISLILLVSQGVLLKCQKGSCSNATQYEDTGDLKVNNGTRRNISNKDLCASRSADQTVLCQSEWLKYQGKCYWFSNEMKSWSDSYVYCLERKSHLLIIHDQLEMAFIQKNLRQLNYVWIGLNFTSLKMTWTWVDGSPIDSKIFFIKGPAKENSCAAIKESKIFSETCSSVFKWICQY

Human KLRF2 (human) = Human KLRF2 (human) (UniProt D3W0D1); experiment: flow, Jurkat, 100 nM Ab
Sequence of Human KLRF2 (human) (D3W0D1 whole entry): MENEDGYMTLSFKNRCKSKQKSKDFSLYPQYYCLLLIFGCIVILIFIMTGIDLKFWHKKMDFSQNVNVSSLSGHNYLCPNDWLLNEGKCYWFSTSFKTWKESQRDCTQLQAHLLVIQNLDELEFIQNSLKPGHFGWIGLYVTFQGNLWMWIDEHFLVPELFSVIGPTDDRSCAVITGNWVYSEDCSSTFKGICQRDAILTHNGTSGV

Human Clec9A (human) = Human Clec9A (human) (UniProt Q6UXN8); experiment: flow, Jurkat, 100 nM Ab
Sequence of Human Clec9A (human) (Q6UXN8 whole entry): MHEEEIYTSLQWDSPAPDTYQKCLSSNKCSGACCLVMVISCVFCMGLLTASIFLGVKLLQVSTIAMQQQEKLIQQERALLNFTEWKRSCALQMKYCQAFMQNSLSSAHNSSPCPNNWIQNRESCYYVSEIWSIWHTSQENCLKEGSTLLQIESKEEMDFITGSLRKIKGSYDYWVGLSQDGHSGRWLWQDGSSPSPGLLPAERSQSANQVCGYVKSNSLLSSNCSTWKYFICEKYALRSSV

Human Clec7A (human) = Human Clec7A (human) (UniProt Q9BXN2); experiment: flow, Jurkat, 100 nM Ab
Sequence of Human Clec7A (human) (Q9BXN2 whole entry): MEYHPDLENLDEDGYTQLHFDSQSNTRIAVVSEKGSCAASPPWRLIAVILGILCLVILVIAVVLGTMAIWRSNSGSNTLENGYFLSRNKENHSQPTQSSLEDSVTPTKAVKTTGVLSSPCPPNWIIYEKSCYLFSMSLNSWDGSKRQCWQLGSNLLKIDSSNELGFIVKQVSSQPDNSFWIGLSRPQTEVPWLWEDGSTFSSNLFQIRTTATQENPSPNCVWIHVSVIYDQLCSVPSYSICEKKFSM

Human Clec4E (human) = Human Clec4E (human) (UniProt Q9ULY5); experiment: flow, Jurkat, 100 nM Ab
Sequence of Human Clec4E (human) (Q9ULY5 whole entry): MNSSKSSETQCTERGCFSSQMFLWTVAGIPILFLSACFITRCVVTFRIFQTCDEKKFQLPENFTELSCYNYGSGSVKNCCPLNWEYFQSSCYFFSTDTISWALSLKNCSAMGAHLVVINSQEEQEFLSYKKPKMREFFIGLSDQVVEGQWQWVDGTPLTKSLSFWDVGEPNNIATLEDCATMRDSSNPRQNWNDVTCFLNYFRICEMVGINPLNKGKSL

Human Clec10A (human) = Human Clec10A (human) (UniProt Q8IUN9); experiment: flow, Jurkat, 100 nM Ab
Sequence of Human Clec10A (human) (Q8IUN9 whole entry): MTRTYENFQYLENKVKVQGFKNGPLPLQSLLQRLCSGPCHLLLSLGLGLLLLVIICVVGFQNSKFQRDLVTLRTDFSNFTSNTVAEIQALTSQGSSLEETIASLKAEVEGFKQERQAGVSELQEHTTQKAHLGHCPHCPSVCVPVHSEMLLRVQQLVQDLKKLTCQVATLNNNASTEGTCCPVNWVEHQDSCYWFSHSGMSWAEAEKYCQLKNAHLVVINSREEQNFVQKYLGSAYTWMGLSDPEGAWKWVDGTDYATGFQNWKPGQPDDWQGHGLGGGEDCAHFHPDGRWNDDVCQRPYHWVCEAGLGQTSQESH

Human CD94 (human) = Human CD94 (human) (UniProt Q13241); experiment: flow, Jurkat, 100 nM Ab
Sequence of Human CD94 (human) (Q13241 whole entry): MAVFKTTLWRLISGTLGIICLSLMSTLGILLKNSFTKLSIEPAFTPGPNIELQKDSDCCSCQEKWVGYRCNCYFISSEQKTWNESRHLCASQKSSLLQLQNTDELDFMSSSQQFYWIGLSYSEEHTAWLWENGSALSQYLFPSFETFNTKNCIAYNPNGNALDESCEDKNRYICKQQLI

Human KLRG1 (human) = Human KLRG1 (human) (UniProt Q96E93); experiment: flow, Jurkat, 100 nM Ab
Sequence of Human KLRG1 (human) (Q96E93 whole entry): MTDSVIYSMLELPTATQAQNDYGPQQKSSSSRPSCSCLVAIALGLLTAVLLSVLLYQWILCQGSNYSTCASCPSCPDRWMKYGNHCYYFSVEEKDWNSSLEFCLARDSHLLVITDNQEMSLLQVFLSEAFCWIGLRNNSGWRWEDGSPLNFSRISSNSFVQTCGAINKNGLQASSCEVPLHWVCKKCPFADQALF

[3] = target: cynomolgus CD161 (cynomolgus); experiment: flow cytometry titration of antibody on Jurkat cynoCD161+ cells, fluorescent secondary antibody, MFI against concentration (log [M])
human CD161 (human) [4] = target: human CD161 (human) (UniProt Q12918); experiment: flow cytometry titration of antibody on Jurkat hCD161+ cells, fluorescent secondary antibody, MFI against Ab concentration (log [M])
human CD161 (human) [5] = target: human CD161 (human) (UniProt Q12918); experiment: flow, Jurkat, Ab titration
[6] = target: cynomolgus CD161 (cynomolgus); experiment: flow, Jurkat, Ab titration

Sequence of Human CD209 (human) (Q9NNX6 whole entry): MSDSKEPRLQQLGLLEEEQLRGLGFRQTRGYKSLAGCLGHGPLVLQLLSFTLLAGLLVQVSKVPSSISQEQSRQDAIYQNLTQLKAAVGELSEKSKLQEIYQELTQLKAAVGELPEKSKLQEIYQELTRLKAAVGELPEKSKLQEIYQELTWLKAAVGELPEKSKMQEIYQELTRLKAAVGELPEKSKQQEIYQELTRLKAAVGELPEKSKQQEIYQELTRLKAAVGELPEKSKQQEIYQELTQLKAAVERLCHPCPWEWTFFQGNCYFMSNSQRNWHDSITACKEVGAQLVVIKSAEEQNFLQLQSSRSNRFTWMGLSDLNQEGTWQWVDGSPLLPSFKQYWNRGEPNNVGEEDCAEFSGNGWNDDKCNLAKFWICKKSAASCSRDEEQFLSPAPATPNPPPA
Sequence of Human Clec5A (human) (Q9NY25 whole entry): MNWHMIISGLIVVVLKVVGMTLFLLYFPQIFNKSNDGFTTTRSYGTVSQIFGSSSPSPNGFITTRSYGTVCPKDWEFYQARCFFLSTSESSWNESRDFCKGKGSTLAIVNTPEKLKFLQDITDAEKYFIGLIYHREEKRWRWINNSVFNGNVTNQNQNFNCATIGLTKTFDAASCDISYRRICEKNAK

mouse anti-human CD161 antibody HP-3G10 gave an MFI normalized to WT (Human Clec5A (human)) of 1.08, an MFI normalized to WT (human CD161 (human) [1]) of 75.2 and an MFI normalized to WT (Human OLR1 (human)) of 1.01. The MFI normalized to WT (Human CD209 (human)) was 1.01, the MFI normalized to WT (Human Clec12B (human)) was 1.1 and the MFI normalized to WT [2] was 46.7. It also gave an MFI normalized to WT (Human KLRF1 (human)) of 0.94, an MFI normalized to WT (Human KLRF2 (human)) of 1.07 and an MFI normalized to WT (Human Clec9A (human)) of 1.09. It also gave an MFI normalized to WT (Human Clec7A (human)) of 1.16, an MFI normalized to WT (Human Clec4E (human)) of 1 and an MFI normalized to WT (Human Clec10A (human)) of 1. For the same substance, the MFI normalized to WT (Human CD94 (human)) was 1, the MFI normalized to WT (Human KLRG1 (human)) was 1.07 and the EC50 (read off the curve) [3] was 1 nM. The EC50 (read off the curve) (human CD161 (human) [4]) was 2 nM, the Kd (human CD161 (human) [5]) was 1.67 nM and the Kd [6] was 1.18 nM.
